This note sets out measurements from patent US20190127470A1 (TRUSTEES OF DARTMOUTH COLLEGE, published 2019).

The experiment concerns the target T1, g2.5-11 scFv-Fc (UniProt P01857-1 1-330 = IgG part).
T1 construct: domain: heavy chain constant regions (CH1-CH3); also called g2.5-3 (identical at the amino acid level); Fg2.5-3
As to the kind of experiment: Octet BLI, scFv-Fc loaded on anti-human CH1 tips, 0-500 nM B7H6-Ig in solution, global fit. As for the experimental part: Anti-Human CH1 tips were activated with 0.05 mg/mL a2.5-11 scFv-Fc protein for 600 seconds to ensure saturation of tips with […]. Tips were then transferred to PBS+0.1% Tween (PBS-T)-containing wells for baseline measurements of scFv-Fc-loaded tips before transferring to antigen-containing wells ranging from 0-500 nM B7H6-Ig. Samples were double-referenced using non-activated tips and PBS-T only containing wells. The Octet Analysis software was used for global kinetic fits which determine a single KD measurement for each antigen using association and dissociation curves for all concentrations tested.
(In general: In BLI a coated tip is dipped into the sample, and binding shifts an interference pattern.)

T1 sequence (P01857 other isoform, or with tags, fused parts or gaps limits assumed): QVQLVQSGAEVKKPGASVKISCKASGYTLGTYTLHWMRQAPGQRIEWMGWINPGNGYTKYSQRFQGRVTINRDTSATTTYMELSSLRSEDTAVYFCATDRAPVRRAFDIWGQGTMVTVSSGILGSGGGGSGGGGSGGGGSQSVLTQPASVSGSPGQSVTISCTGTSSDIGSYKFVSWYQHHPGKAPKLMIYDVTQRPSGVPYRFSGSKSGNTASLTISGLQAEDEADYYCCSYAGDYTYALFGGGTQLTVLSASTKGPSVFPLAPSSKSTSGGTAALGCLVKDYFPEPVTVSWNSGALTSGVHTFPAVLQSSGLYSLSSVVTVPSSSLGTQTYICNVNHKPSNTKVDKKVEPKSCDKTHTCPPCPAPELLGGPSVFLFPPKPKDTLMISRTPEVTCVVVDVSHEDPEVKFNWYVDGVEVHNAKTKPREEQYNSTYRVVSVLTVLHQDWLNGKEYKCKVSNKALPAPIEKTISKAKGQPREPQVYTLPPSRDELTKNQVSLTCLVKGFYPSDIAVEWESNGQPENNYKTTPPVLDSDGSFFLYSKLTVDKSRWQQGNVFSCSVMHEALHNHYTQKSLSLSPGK

B1: B7H6-Ig, a fusion protein containing the extracellular portion of B7H6 and the Fc portion of a Mouse IgG2a (Fc fusion, UniProt Q68D85 25-262, looked up)
chain: DLKVEMMAGGTQITPLNDNVTIFCNIFYSQPLNITSMGITWFWKSLTFDKEVKVFEFFGDHQEAFRPGAIVSPWRLKSGDASLRLPGIQLEEAGEYRCEVVVTPLKAQGTVQLEVVASPASRLLLDQVGMKENEDKYMCESSGFYPEAINITWEKQTQKFPHPIEISEDVITGPTIKNMDGTFNVTSCLKLNSSQEDPGTVYQCVVRHASLHTPLRSNFTLTAARHSLSETEKTDNFS
notes: extracellular domain; also called soluble B7H6-Ig antigen; not shown: Fc portion of a Mouse IgG2a
Take B1: the equilibrium dissociation constant (Kd) (usually the constant that tells how readily two partners part at equilibrium) worked out at 25.7 nM; the dissociation rate constant (koff) (as a rule, the rate constant with which the complex falls apart) amounted to 0.00035 s⁻¹; the kon – broadly, the second-order rate constant of association – was 13700 M⁻¹ s⁻¹.
